The target of this test is GDP-bound KRAS4b-farnesyl (farnesylated, not carboxy-methylated) (UniProt P01116). Put plainly: ITC. For orientation: In ITC the heat of successive injections is recorded.

Turning to “calmodulin (CaM), full-length, amino acids 2-148 (from UniProt P0DP23 2-148) (natural protein)”, the Kd (in general, the equilibrium constant for the complex coming apart) is 1500 nM.

For the origin of these results see publication PMC6428923.
